Source: US8329409B2, “Methods, kits, and antibodies for detecting parathyroid hormone” (Scantibodies Laboratory, Inc., priority 1999, dated 2012)
“And” between values parts separate entries of the source, which are not always exact repeats. Equal entries are not always repeated. “Also recorded” adds a separate entry of the source.

B1: hPTH 7-84: Synthetic human PTH 7-84 purchased from Bachem; large non-(1-84) PTH fragment, PTH antagonist (PIN) (peptide)
peptide: LMHNLGKHLNSMERVEWLRKKLQDVHNFVALGAPLAPRDAGSQRPRKKEDNVLVESHEKSLGEADKADVNVLTKAKSQ
B2: hPTH 1-84: Synthetic human PTH 1-84 purchased from Bachem; complete 84 amino acid human parathyroid hormone (SEQ ID NO: 1) (peptide)
chain: SVSEIQLMHNLGKHLNSMERVEWLRKKLQDVHNFVALGAPLAPRDAGSQRPRKKEDNVLVESHEKSLGEADKADVNVLTKAKSQ

Experiments:
[1] = tested on: Whole PTH assay (goat antibodies to PTH 39-84 and to the first six amino acids of human PTH); experiment: Whole PTH IRMA assay, recognition of hPTH 1-84 vs hPTH 7-84; assay type: binding; conditions: hPTH 7-84 at a concentration as high as 10,000 pg/mL
Description: Another method would be to couple the initial wPTH sequence antibody to colloidal solid supports, such as latex particles. More specifically, one can create a signal antibody by iodinating 50 micrograms of affinity purified goat anti-(1-6) PTH antibody (Scantibodies Laboratory, Inc., Santee Calif., U.S.A.) by oxidation with chloramine T, incubation for 25 seconds at room temperature with 1 millicurie of 125-1 radioisotope and reduction with sodium metabisulfate. […] The fractions collected from the desalting column are measured in a gamma counter and those fractions representing the 125-1-goat anti-(1-6) PTH antibody are pooled and diluted to approximately 300,000 D PM (disintegrations per minute) per 100 microliters. […]
To conduct a whole PTH assay of a sample, 200 microliter samples of human serum are added to the solid phase antibody coated tubes. […] Radioactivity on the solid phase, which amount corresponds to the quantity of wPTH present, is measured using a gamma counter. The radioactivity data for the samples is processed by conventional analysis with use of the results from standards and controls and computer software in order that the concentration of whole PTH in the samples may be ascertained. […]

Sprague-Dawley rats = experiment: Phosphaturic response (clearance studies) in rats; assay type: in vivo
Description: Phosphaturic response. Normal female Sprague-Dawley rats weighing 225 to 250 g were prepared for clearance studies under light anesthesia. Polyethylene catheters (PE50) were placed in the femoeral artery for the collection of blood and measurement of blood pressure (Blood Pressure Analyzer; Micro-Medic, Inc., Louisville, Ky., USA), in the femoral vein for infusion and in the bladder for the collection of urine. Rats were placed in Plexiglas® holders and allowed to recover from the effect of the anesthetic for one hour. A priming dose (0.6 mL) of chemical inulin in saline was administered over a period of three minutes to achieve a plasma inulin level between […]. A solution of saline containing inulin to maintain this level and calcium gluconate to deliver 0.5 mg. Calcium was infused at the rate of 0.03 mL/min. After equilibration, a total of four 30-minute urine collections was obtained.
To assess the effect of hPTH 1-84 on phosphate excretion, urine was collected during two control periods, after which rats received a priming bolus of 1.8 μg of hPTH 1-84 followed by a sustained infusion that delivered a total of 8.2 μg of I-PTH. After an equilibration period of 20 minutes, two 30-minute urine collections were obtained. […]
Blood samples and blood pressure measurements were recorded at the beginning and end of the baseline period, at the beginning of the PTH infusion period, and at the end of the study. The concentration of inulin in plasma and urine was determined by the method of Fuhr, Kaczmarczyk, and Kruttgen, Klin Wochenschr, 33:729-730 (1955). The estimation of the glomerular filtration rate (GFR) by inulin clearance and the calculation of the fractional urinary excretion rate of phosphorus (FEP04) were performed in the standard fashion. Blood samples were centrifuged, and plasma phosphorus and calcium concentrations were measured.

ROS/17.2 cells = experiment: cAMP production in osteoblastic cell line ROS/17.2; assay type: cell-based, rat; conditions: for effect on cAMP production: 10^-11 to 10^-8 mol/L, no-effect statement at 10^-8 mol/L
Description: Osteoblastic cell line. To compare the biological effects of the two peptides (hPTH 1-84 and 7-84), intracellular cAMP production was measured in the rate osteosarcoma cell line ROS/17.2, which has an osteoblastic phenotype and is known to increase cAMP production in response to PTH. Cells were cultured in Ham's F12 media containing 10% fetal bovine serum. Cells were plated out in 12-well plates at a density of 30,000 cells per well and grown to confluence. Cells were washed three times with KHMS buffer at 37° C. (KCI 4.0 mmol/L, CaCl2 1.25 mmol/L, MgSO4 1.25 mmol/L, KH2PO4 1.2 mmol/L, HEPES 10 mmol/L, NaCl 100 mmol/L, NaHCO3 37 mmol/L, and glucose 10 mmol/L, pH 7.5). cAMP production was measured using 500 μL of KHMS buffer (37°) containing isobutyl-1 methylxantine (IBMX) 1.0 mmol/L and various concentrations (10^−11 to 10^−8 mol/L) of hPTH 1-84 or hPTH 7-84. After a five-minute incubation, 100 μL of 1.8 mol/L pechloric acid were added. After an additional five-minute incubation at room temperature, 100 μL of 3 mol/KHCO3 were added to neutralize the acid. Samples were centrifuged at 3000 rpm for 15 minutes, and the supernatants were assayed for cAMP [26].

Nichols Intact PTH assay = experiment: Nichols Intact (I-Nichols) PTH assay, recognition of hPTH 1-84 vs hPTH 7-84; assay type: binding; conditions: compared with hPTH 1-84
Excerpt: The present whole IRMA assay was compared to a conventional intact PTH or I-PTH immunoassay, the Allegro Nichols Intact-PTH assay, (which is commercially available and made by Nichols Institute Diagnostics of San Juan Capistrano, Calif., U.S.A.), in both PTH normal persons and those suffering from chronic uremia. This I-PTH immunoassay, detects both PTH7-84 and wPTH (see FIG. 10).
This new Whole PTH two-site assay (Scantibodies Laboratories, Santee, Calif., USA) first employees and antibody that recognizes the 39-84 region of the PTH molecule. This antibody, produced in a goat and affinity purified, is present in relative excess and is immobilized onto polystyrene-coated tubes. The second antibody, also developed in a goat, was also affinity purified and recognizes only the first six amino acids (1 to 6; Ser-Val-Ser-Glu-Ile-Gln) of the human PTH molecule (FIG. 1). This anti-hPTH assay uses synthetic human PTH 1-84 as the standard, with a limit of detection of approximately 1 to 2 pg/mL. Normal values range from 5 to 35 pg/mL. […] The Whole PTH assay was compared with the Intact PTH assay purchases from the Nichols Institute (I-Nichols, San Jan Capistrano, Calif., USA). Synthetic human PTH 1-84 and 7-84 were purchased from Bachem (Torrance, Calif. USA). To assess circulating levels of hPTH 1-84 and non-(1-84) PTH, heparinized blood samples were obtained before dialysis from 28 patients who had been maintained on chronic hemodialysis for 1.2 to 7.5 years and from 14 renal transplant patients (1 to 6 years).

PTX rats = experiment: Calcemic response in parathyroidectomized (PTX) rats; assay type: in vivo, Sprague-Dawley rats
Description: Calcemic response. Normal female Sprague-Dawley rats weighing 225 to 250 g (Harlan, Indianapolis, Ind., USA) were parathyroidectomized (PTX) and fed a 0.02% calcium diet. Rats with a plasma calcium below 7.0 mg/dL after overnight fasting were included in the study. A 20 μg dose of hPTH 1-84 or 7-84 was given intraperitoneally to PTX rats in four doses of 5 μg each at 30-minute intervals (0, 30, 60, and 90 minutes). For control studies, the rats received vehicle (saline solution) alone. Blood was drawn via the tail at 0, 60, 90, and 120 minutes. For competition experiments, rats received an injection of hPTH 7-84 10 minutes prior to each injection of hPTH 1-84. The molar ratio of hPTH 7-84/hPTH 1-84 was 1:1.
Total plasma calcium levels were determined using an atomic absorption spectrophotometer (model 1100B; Perkin Elmer, Norwalk, Conn., USA). Plasma phosphorus levels were determined using an autoanalyzer (COBAS MIRA Plus; Roche, Newark, N.J., USA).

Molecule | detection by the Whole PTH assay [1] | decrease of the increase in FEP04 (phosphaturia) induced by hPTH 1-84 (Sprague-Dawley rats; co-administration of hPTH 7-84 with hPTH 1-84 (molar ratio 4:1)) | glomerular filtration rate (GFR), treatment period (Sprague-Dawley rats; hPTH 7-84 given simultaneously with hPTH 1-84 (molar ratio 4:1), increased from 2.1±0.1, N=8, P<0.05) | effect on cAMP production (ROS/17.2 cells) | recognition by the Nichols Intact PTH assay (Nichols Intact PTH assay) | recognition by the Nichols Intact PTH assay (Nichols Intact PTH assay; listed as 7-84) | recognition by the Nichols Intact PTH assay (Nichols Intact PTH assay; listed as PTH7-84) | decrease in plasma calcium (PTX rats; PTX rats fed a 0.02% calcium diet, 20 μg intraperitoneally in four doses of 5 μg, N=5, P<0.05) | decrease of the calcemic response induced by hPTH 1-84 alone (PTX rats; hPTH 7-84 given with hPTH 1-84 in a 1:1 molar ratio, PTX rats, N=6, P<0.001) | glomerular filtration rate (GFR), treatment period (Sprague-Dawley rats; rats infused with hPTH 1-84 alone, control period 1.8±0.3, N=10) | fractional excretion of phosphate (FEP04), treatment period (Sprague-Dawley rats; rats infused with hPTH 1-84 alone, increased from 11.9±2.4, N=10, P<0.001) | intracellular cAMP after treatment (ROS/17.2 cells; 10^-8 mol/L peptide, five-minute incubation, increased from 18.1±1.25 nmol/well, N=6) | increase in plasma calcium (PTX rats; PTX rats fed a 0.02% calcium diet, 20 μg intraperitoneally in four doses of 5 μg, N=9, P<0.001)
B1 | undetectable | 50.2% | 2.6 ± 0.2 mL/min | no effect | does not differentiate | did not discriminate | detects | 0.30 ± 0.08 mg/dL | 94% | – | – | – | –
B2 | detected with a high degree of sensitivity | – | – | increased cAMP production in a does-dependent manner; also recorded: increased cAMP production in a dose-dependent manner | – | – | – | – | – | 1.8 ± 0.1 mL/min | 27.7±2.4% | 738±4.13 nmol/well and 738±4.1 nmol/well | 0.65 ± 0.10 mg/dL
